The results in this text go back to paper PMC11091212.

Assay [1] concerns the target Microfibril-associated glycoprotein 4 (human) (UniProt P55083). Kind of assay: SPR; Ca2+ form (octamer): MFAP4 or MFAP4_(C34S) amine-coupled on CM5 (Biacore X), elastogenic proteins as analytes 5-100 µg/mL in TBS/Ca2+ (2 mM CaCl2); 1:1 Langmuir fit, KD is the average over five concentrations. For orientation: SPR reads the build-up and loss of mass on a sensor chip optically.

The target is the same in assay [2]. Kind of assay: SPR; Ca2+. To be noted: domain or fragment.

By Kd is commonly meant the equilibrium constant for the complex coming apart. Read a high Kd as a looser complex.

Chain of Microfibril-associated glycoprotein 4 (human) (P55083 22-255): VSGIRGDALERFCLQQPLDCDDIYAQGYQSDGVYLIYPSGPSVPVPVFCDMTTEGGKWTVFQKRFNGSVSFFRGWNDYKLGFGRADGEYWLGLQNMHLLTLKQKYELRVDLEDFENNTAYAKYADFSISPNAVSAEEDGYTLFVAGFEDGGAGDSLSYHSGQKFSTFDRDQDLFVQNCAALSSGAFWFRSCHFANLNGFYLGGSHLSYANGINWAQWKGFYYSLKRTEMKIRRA

As for “recombinant N-terminal half of fibrillin-1 (domain or fragment)”, in assay [1], the Kd is 1.8 nM.

For N-terminal half of LTBP4S, the Kd in assay [2] amounted to 16 nM.

In the case of “latent transforming growth factor beta binding protein-4, short isoform (natural protein)”, the Kd in assay [1] was 15 nM.
